Test results published in patent publication US20210301005A1 (Genentech, published 2021).
Read-outs that look alike come from different tables or passages of the source.

T1: human TGFβ2, mature receptor-binding domain (human, UniProt P09858 303-414 (pig entry), The mature TGFβ2 is a disulfide-linked homodimer of this 112-residue chain. The 4A11 epitope spans both monomers (p-1207).)
T1 sequence: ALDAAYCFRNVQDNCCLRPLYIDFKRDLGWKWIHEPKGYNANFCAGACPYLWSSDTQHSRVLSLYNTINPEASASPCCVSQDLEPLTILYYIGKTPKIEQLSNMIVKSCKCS

T2: human TGFβ3, mature dimeric form (human, UniProt P10600 301-412)
T2 sequence: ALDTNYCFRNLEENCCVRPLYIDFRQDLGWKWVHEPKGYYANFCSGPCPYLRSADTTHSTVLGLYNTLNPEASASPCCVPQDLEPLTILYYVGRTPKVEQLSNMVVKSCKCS


Columns and labels:
[1] = target: T1, human TGFβ2, mature receptor-binding …; assay: cell-based or functional assay
[2] = target: T1, human TGFβ2, mature receptor-binding …; assay: BIAcore T200
[3] = target: T1, human TGFβ2, mature receptor-binding …; assay: cell-based or functional assay; remark: listed apart in the source
[4] = target: T2, human TGFβ3, mature dimeric form; assay: cell-based or functional assay
[5] = target: T3, human TGFβ1, mature receptor-binding domain (human, UniProt P01137 279-390); assay: cell-based or functional assay
T3 sequence (P01137 279-390 limits assumed): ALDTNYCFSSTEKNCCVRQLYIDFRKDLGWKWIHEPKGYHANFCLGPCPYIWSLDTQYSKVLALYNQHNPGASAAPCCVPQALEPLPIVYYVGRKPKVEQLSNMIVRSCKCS

[6] = target: T1, human TGFβ2, mature receptor-binding …; assay: BIAcore T200; remark: listed apart in the source
[7] = target: T2, human TGFβ3, mature dimeric form; assay: BIAcore T200
[8] = target: T1, human TGFβ2, mature receptor-binding …; assay: BIAcore T200; remark: listed apart in the source
Method: (§1) For binding affinity determinations of all humanized 2A10 antibodies, Surface Plasmon Resonance (SPR) measurement with a BIAcore™-T200 instrument was used. Briefly, series S CM5 biosensor chip with protein A was first applied to capture each humanized 2A10 variant to achieve approximately 100 response units (RU) on each flow cell, following by injection of 3-fold serial dilutions of human TGFβ1, TGFβ2 or TGFβ3 (0.02 nM to 5 nM) in HBS-EP buffer (0.01M HEPES pH 7.4, 0.15M NaCl, 3 mM EDTA and 0.05% v/v surfactant P20) at 25° C. with a flow rate of 50 μl/min for kinetics measurement. Association rates (ko.) and dissociation rates (koff) were calculated using a simple one-to-one Langmuir binding model (BIAcore T200 evaluation software version 2.0) to determine the equilibrium dissociation constant (KD), which was calculated as the ratio koff/kₒₙ.

[9] = target: T2, human TGFβ3, mature dimeric form; assay: BIAcore T200; remark: listed apart in the source
Method: as §1

[10] = target: T1, human TGFβ2, mature receptor-binding …; assay: cell-based or functional assay; remark: listed apart in the source
[11] = target: T2, human TGFβ3, mature dimeric form; assay: cell-based or functional assay; remark: listed apart in the source
[12] = target: T3, human TGFβ1, mature receptor-binding …; assay: cell-based or functional assay; remark: listed apart in the source
[13] = target: T1, human TGFβ2, mature receptor-binding …; assay: cell-based or functional assay; remark: listed apart in the source
[14] = target: T2, human TGFβ3, mature dimeric form; assay: cell-based or functional assay; remark: listed apart in the source
[15] = target: T3, human TGFβ1, mature receptor-binding …; assay: cell-based or functional assay; remark: listed apart in the source
[16] = target: T2, human TGFβ3, mature dimeric form; assay: cell-based or functional assay; remark: listed apart in the source
[17] = target: T1, human TGFβ2, mature receptor-binding …; assay: BIAcore T200; remark: listed apart in the source
Method: as §1
(§2) Binding affinity determinations of all humanized 4A11 antibodies were performed using SPR measurement with a BIAcore™-T200 instrument, as described above in Example 6 ([…]).

[18] = target: T2, human TGFβ3, mature dimeric form; assay: BIAcore T200; remark: listed apart in the source
Method: as §1, §2

[19] = target: T1, human TGFβ2, mature receptor-binding …; assay: cell-based or functional assay; remark: listed apart in the source
[20] = target: T2, human TGFβ3, mature dimeric form; assay: cell-based or functional assay; remark: listed apart in the source
[21] = target: T3, human TGFβ1, mature receptor-binding …; assay: cell-based or functional assay; remark: listed apart in the source

Binder | Kd [8] | Kd [9] | HEKBlue TGFβ blocking IC50 [10] | HEKBlue TGFβ blocking IC50 [11] | HEKBlue TGFβ blocking IC50 [12] | HEKBlue TGFβ blocking IC50 [13] | HEKBlue TGFβ blocking IC50 [14] | HEKBlue TGFβ blocking IC50 [15] | fold drop in binding against h4A11.v7 [6] | Kd [17] | Kd [18] | further results
h6F12.v4 (antibody, human IgG1, kappa, N297G, V domains shown) VH: EVQLQESGPGLVKPSETLSLTCTVSGFSLTTYNVHWVRQPPGKGLEWMGLIWNTGGTRYNSALKSRLTISKDTSKSQVSLKLSSVTAADTAVYYCARDPVPNKWHFDFWGPGTLVTVSS VL: EIVMTQSPATLSVSPGERATLSCLASEDIYSNLAWYQQKPGQSPRLLIYDARSLQDGVPARFSGSESGPEYTLTISSLQSEDFAVYFCQQHHAYPFTFGQGTKVEIKR | – | – | – | – | – | – | – | – | – | – | – | fold drop in blocking against r6F12 [1]: 2.5 to 5 fold; Kd [2]: ≤ 0.0005 nM; HEKBlue TGFβ blocking IC50 [3]: 0.02 nM; HEKBlue TGFβ blocking IC50 [4]: > 200 nM; HEKBlue TGFβ blocking IC50 [5]: > 200 nM
h2A10.v1 (antibody, human IgG1, kappa, N297G, V domains shown, also called humanized 2A10 version 1) VH: EVQLVESGGGLVQPGPSLRLSCTASGFDFNSYGMSWVRQAPGKGLELVADIVSKTYNYTTYYSDSVKDRFTISRDDSKSIVYLQMNSLKTEDTAVYYCTVAPGGSFDYWGQGTLVTVSS VL: DIQLTQSPSSLSASVGDRVTITCRASQSVSISRFNLMHWYQHKPGKQPKLLIYRASNLASGIPSRFSGSGSGTDFTLTISSLQPEDFATYYCQHSRESPWTFGGGTKVEIKR | – | – | – | – | – | – | – | – | – | – | – | binding result [6]: binds; binding result [7]: binds
h2A10.v2.N54Q (antibody, human IgG1, kappa, N297G, V domains shown) VH: EVQLLESGGGLVQPGGSLRLSCAASGFDFNSYGMSWVRQAPGKGLELVADIVSKTYQYTTYYSDSVKDRFTISRDDSKSTVYLQMNSLRAEDTAVYYCTVAPGGSFDYWGQGTLVTVSS VL: DIQLTQSPSSLSASVGDRVTITCRASQSVSISRFNLMHWYQHKPGKQPKLLIYRASNLASGIPSRFSGSGSGTDFTLTISSLQPEDFATYYCQHSRESPWTFGGGTKVEIKR | 0.378 nM | 0.0025 nM | > 200 nM | 0.01 nM | > 200 nM | – | – | – | – | – | – | fold drop in TGFβ3 binding against h2A10.v2 [7]: < 2 fold
h2A10.v2.N54S (antibody, human IgG1, kappa, N297G, V domains shown) VH: EVQLLESGGGLVQPGGSLRLSCAASGFDFNSYGMSWVRQAPGKGLELVADIVSKTYSYTTYYSDSVKDRFTISRDDSKSTVYLQMNSLRAEDTAVYYCTVAPGGSFDYWGQGTLVTVSS VL: DIQLTQSPSSLSASVGDRVTITCRASQSVSISRFNLMHWYQHKPGKQPKLLIYRASNLASGIPSRFSGSGSGTDFTLTISSLQPEDFATYYCQHSRESPWTFGGGTKVEIKR | 0.425 nM | 0.0024 nM | > 200 nM | 0.01 nM | > 200 nM | – | – | – | – | – | – | fold drop in TGFβ3 binding against h2A10.v2 [7]: < 2 fold
h2A10.v2.T56A (antibody, human IgG1, kappa, N297G, V domains shown) VH: EVQLLESGGGLVQPGGSLRLSCAASGFDFNSYGMSWVRQAPGKGLELVADIVSKTYNYATYYSDSVKDRFTISRDDSKSTVYLQMNSLRAEDTAVYYCTVAPGGSFDYWGQGTLVTVSS VL: DIQLTQSPSSLSASVGDRVTITCRASQSVSISRFNLMHWYQHKPGKQPKLLIYRASNLASGIPSRFSGSGSGTDFTLTISSLQPEDFATYYCQHSRESPWTFGGGTKVEIKR | 0.247 nM | 0.001 nM | > 200 nM | 0.01 nM | > 200 nM | – | – | – | – | – | – | –
h4A11.v7.11 (antibody, human IgG1, kappa, N297G, V domains shown) VH: EQQLQESGPGLVKPSETLSLTCTVTGFSLSSYTVNWVRQPAGKGLEWIGYISYGGSAYYASWANGRFTISVDSSKNQVSLKLSSVTAADTAVYFCARHMQVGGAPTGSMAAFDPWGPGTLVTVSS VL: EAVLTQSPGTLSLSPGERATLSCQSSQSVYNNNYLSWFQQKPGQPPRLLIYGASTLTSGVPDRFSGSGSGTDFTLTISRLEPEDFAVYYCAGGYSGSSDKYAFGGGTKVEIKR | – | – | – | – | – | > 200 nM | 3.53 nM | > 200 nM | 6 fold | 0.0401 nM | 0.0214 nM | fold loss of blocking against h4A11.v7 [1]: > 2000 fold; fold loss of blocking against h4A11.v7 [16]: 118 fold; fold drop in binding against h4A11.v7 [7]: 2 fold
h4A11.v7.13 (antibody, human IgG1, kappa, N297G, V domains shown) VH: EQQLQESGPGLVKPSETLSLTCTVTGFSLSSYTVNWVRQPAGKGLEWIGYISYGGSAYYASWANGRFTISKDSSKNQFSLKLSSVTAADTAVYFCARHMQVGGAPTGSMAAFDPWGPGTLVTVSS VL: EAVLTQSPGTLSLSPGERATLSCQSSQSVYNNNYLSWFQQKPGQPPRLLIYGASTLTSGVPDRFSGSGSGTDFTLTISRLEPEDFAVYYCAGGYSGSSDKYAFGGGTKVEIKR | – | – | – | – | – | 0.03 nM | 0.05 nM | > 200 nM | 2.5 fold | 0.0159 nM | 0.0089 nM | –
h4A11.v7.5 (antibody, V domains shown) VH: EQQLQESGPGLVKPSETLSLTCTVTGFSLSSYTVNWVRQPAGKGLEWIGYISYGGSAYYASWANGRFTISKDSSKNQVSLKLSSVTAADTAVYFCARHMQVGGAPTGSMAAFDPWGPGTLVTVSS VL: EAVLTQSPGTLSLSPGERATLSCQSSQSVYNNNYLSWYQQKPGQPPRLLIYGASTLTSGVPDRFSGSGSGTDFTLTISRLEPEDFAVYYCAGGYSGSSDKYAFGGGTKVEIK | – | – | – | – | – | 0.16 nM | 0.04 nM | > 200 nM | ~2 fold | 0.0092 nM | 0.0093 nM | fold loss of blocking against h4A11.v7 [1]: ~2 fold
h6F12.v1 (antibody, human IgG1, kappa, N297G, V domains shown) VH: EVTLKESGPVLVKPTETLTLTCTVSGFSLTTYNVHWVRQPPGKALEWMGLIWNTGGTRYNSALKSRLTISKDTSKSQVVLTMTNMDPVDTATYYCARDPVPNKWHFDFWGPGTLVTVSS VL: DIQMTQSPSTLSASVGDRVTITCLASEDIYSNLAWYQQKPGKSPKLLIYDARSLQDGVPSRFSGSESGPEYTLTISSLQPDDFATYFCQQHHAYPFTFGQGTKVEIKR | – | – | – | – | – | – | – | – | – | – | – | fold drop in blocking against r6F12 [1]: 2.5 to 5 fold; Kd [2]: ≤ 0.0005 nM; HEKBlue TGFβ blocking IC50 [3]: 0.02 nM; HEKBlue TGFβ blocking IC50 [4]: > 200 nM; HEKBlue TGFβ blocking IC50 [5]: > 200 nM; HEKBlue TGFβ blocking IC50 [19]: 0.02 nM; HEKBlue TGFβ blocking IC50 [20]: > 200 nM; HEKBlue TGFβ blocking IC50 [21]: > 200 nM
